In this data set the test system is BsSSB (6xHis-tagged, as purified) (Bacillus subtilis). Put plainly: EMSA. The following applies: 100 mM Tris-HCl pH 7.5, 10 min at 37 °C, 12.5% native PAGE.

For 50-base random sequence ssDNA, the binding signal (% probe shifted) worked out at 50.

Source of the values: publication PMC1405823.
